Consider 1 molecule from paper PMC6629373, “Cryo-EM structure of the rhodopsin-Gαi-βγ complex reveals binding of the rhodopsin C-terminal tail to the gβ subunit” (eLife, 2019).

The assay addresses T1, human Gαi subunit (Gαi1) with N-terminal deca-histidine tag (human, UniProt P63096 1-354).
T1 construct: Gαi1 subunit, human; TEV protease-cleavable tag; source: E. coli BL21 (DE3), purified; not shown: His10, N-terminal, kept
The assay can be described thus: cryo-EM structure; rhodopsin-Gi-Fab16 complex; rhodopsin on 1D4 resin mixed with 10xHis-tagged Gi, light-activated, with apyrase, in LMNG; Ni-NTA; Fab16 added in molar excess (1:1.4); SEC in 20 mM HEPES pH 7.5, 150 mM NaCl; Titan Krios, K2; nominal resolution 4.38 Å. The following applies: both partners purified.

B1: bovine rhodopsin N2C/M257Y/D282C (stabilized, constitutively active mutant) (receptor, UniProt P02699 1-348, looked up)
chain: MCGTEGPNFYVPFSNKTGVVRSPFEAPQYYLAEPWQFSMLAAYMFLLIMLGFPINFLTLYVTVQHKKLRTPLNYILLNLAVADLFMVFGGFTTTLYTSLHGYFVFGPTGCNLEGFFATLGGEIALWSLVVLAIERYVVVCKPMSNFRFGENHAIMGVAFTWVMALACAAPPLVGWSRYIPEGMQCSCGIDYYTPHEETNNESFVIYMFVVHFIIPLIVIFFCYGQLVFTVKEAAAQQQESATTQKAEKEVTRMVIIYVIAFLICWLPYAGVAFYIFTHQGSCFGPIFMTIPAFFAKTSAVYNPVIYIMMNKQFRNCMVTTLCCGKNPLGDDEASTTVSKTETSQVAPA
modifications: palmitoylation of Cys residues at positions 322 and 323; reconstituted with 9-cis or 11-cis retinal and light-activated
notes: rhodopsin, bovine, mutant N2C/M257Y/D282C; Residues 324-335 of the C-tail were modelled in the map; also called the receptor
In the case of B1, the binding result was “binds”.
